Measured values from patent publication US20210246166A1 (Bayer, published 2021).
Numbered stars: 1 amine (or outer) side, 2 acyl side, 3 side chain; on linkers, the order of the positions; unused ones are H or OH. Bridge positions count the residues as written; N and C are the ends. Square brackets hold non-standard residues; d marks the D form. Ends that are not written are not given here. NH(CH2CH2O)5CH2CO = O=C(COCCOCCOCCOCCOCCN[*:1])[*:2]; PEG9 = NCCOCCOCCOCCOCCOCCOCCOCCOCCOCCC(=O)O; Oic = O=C(O)[C@@H]1C[C@@H]2CCCC[C@@H]2N1; PEG8 = NCCOCCOCCOCCOCCOCCOCCOCCOCCC(=O)O; tBuAla = CC(C)(C)C[C@H](N)C(=O)O; Pen = CC(C)(S)[C@H](N)C(=O)O; PEG2 = NCCOCCOCCC(=O)O; Sar = CNCC(=O)O

B1: ((N-Me)G)-IC+SRSLP-(Oic)-I-(Pen)+IPY-OH (peptide)
peptide: [Sar]ICSRSLP[Oic]I[Pen]IPY-OH
modifications: disulfide 3-11; N-terminus assumed
SMILES: CC[C@H](C)[C@H](NC(=O)CNC)C(=O)N[C@H]1CSSC(C)(C)[C@@H](C(=O)N[C@H](C(=O)N2CCC[C@H]2C(=O)N[C@@H](Cc2ccc(O)cc2)C(=O)O)[C@@H](C)CC)NC(=O)[C@H]([C@@H](C)CC)NC(=O)[C@@H]2C[C@@H]3CCCC[C@@H]3N2C(=O)[C@@H]2CCCN2C(=O)[C@H](CC(C)C)NC(=O)[C@H](CO)NC(=O)[C@H](CCCNC(=N)N)NC(=O)[C@H](CO)NC1=O
B2: ((N-Me)G)-IC+SRSLP-(Oic)-I-(Pen)+IPDA-OH (peptide)
peptide: [Sar]ICSRSLP[Oic]I[Pen]IPDA-OH
modifications: disulfide 3-11; N-terminus assumed
SMILES: CC[C@H](C)[C@H](NC(=O)CNC)C(=O)N[C@H]1CSSC(C)(C)[C@@H](C(=O)N[C@H](C(=O)N2CCC[C@H]2C(=O)N[C@@H](CC(=O)O)C(=O)N[C@@H](C)C(=O)O)[C@@H](C)CC)NC(=O)[C@H]([C@@H](C)CC)NC(=O)[C@@H]2C[C@@H]3CCCC[C@@H]3N2C(=O)[C@@H]2CCCN2C(=O)[C@H](CC(C)C)NC(=O)[C@H](CO)NC(=O)[C@H](CCCNC(=N)N)NC(=O)[C@H](CO)NC1=O
B3: ((N-Me)G)-IC+SRSLP-(Oic)-I-(Pen)+IPGd-OH (peptide)
peptide: [Sar]ICSRSLP[Oic]I[Pen]IPG[dD]-OH
modifications: disulfide 3-11; N-terminus assumed
SMILES: CC[C@H](C)[C@H](NC(=O)CNC)C(=O)N[C@H]1CSSC(C)(C)[C@@H](C(=O)N[C@H](C(=O)N2CCC[C@H]2C(=O)NCC(=O)N[C@H](CC(=O)O)C(=O)O)[C@@H](C)CC)NC(=O)[C@H]([C@@H](C)CC)NC(=O)[C@@H]2C[C@@H]3CCCC[C@@H]3N2C(=O)[C@@H]2CCCN2C(=O)[C@H](CC(C)C)NC(=O)[C@H](CO)NC(=O)[C@H](CCCNC(=N)N)NC(=O)[C@H](CO)NC1=O
B4: ((N-Me)G)-IC+SRS-((tBu)A)-PPI-(Pen)+IP-(PEG5-CH2CO2H(18 atoms))-OH (peptide)
peptide: [Sar]ICSRS[tBuAla]PPI[Pen]IP[NH(CH2CH2O)5CH2CO]-OH
modifications: disulfide 3-11; N-terminus assumed
SMILES: CC[C@H](C)[C@H](NC(=O)CNC)C(=O)N[C@H]1CSSC(C)(C)[C@@H](C(=O)N[C@H](C(=O)N2CCC[C@H]2C(=O)NCCOCCOCCOCCOCCOCC(=O)O)[C@@H](C)CC)NC(=O)[C@H]([C@@H](C)CC)NC(=O)[C@@H]2CCCN2C(=O)[C@@H]2CCCN2C(=O)[C@H](CC(C)(C)C)NC(=O)[C@H](CO)NC(=O)[C@H](CCCNC(=N)N)NC(=O)[C@H](CO)NC1=O
B5: ((N-Me)G)-IC+SRS-((tBu)A)-PPI-(Pen)+IP-((N-Me)G)-((N-Me)G)-((N-Me)G)-OH (peptide)
peptide: [Sar]ICSRS[tBuAla]PPI[Pen]IP[Sar][Sar][Sar]-OH
modifications: disulfide 3-11; N-terminus assumed
SMILES: CC[C@H](C)[C@H](NC(=O)CNC)C(=O)N[C@H]1CSSC(C)(C)[C@@H](C(=O)N[C@H](C(=O)N2CCC[C@H]2C(=O)N(C)CC(=O)N(C)CC(=O)N(C)CC(=O)O)[C@@H](C)CC)NC(=O)[C@H]([C@@H](C)CC)NC(=O)[C@@H]2CCCN2C(=O)[C@@H]2CCCN2C(=O)[C@H](CC(C)(C)C)NC(=O)[C@H](CO)NC(=O)[C@H](CCCNC(=N)N)NC(=O)[C@H](CO)NC1=O
B6: ((N-Me)G)-IC+SRS-((tBu)A)-PPI-(Pen)+IP-(PEG1(10 atoms))-OH (peptide)
peptide: [Sar]ICSRS[tBuAla]PPI[Pen]IP[PEG2]-OH
modifications: disulfide 3-11; N-terminus assumed
SMILES: CC[C@H](C)[C@H](NC(=O)CNC)C(=O)N[C@H]1CSSC(C)(C)[C@@H](C(=O)N[C@H](C(=O)N2CCC[C@H]2C(=O)NCCOCCOCCC(=O)O)[C@@H](C)CC)NC(=O)[C@H]([C@@H](C)CC)NC(=O)[C@@H]2CCCN2C(=O)[C@@H]2CCCN2C(=O)[C@H](CC(C)(C)C)NC(=O)[C@H](CO)NC(=O)[C@H](CCCNC(=N)N)NC(=O)[C@H](CO)NC1=O
B7: GIC+SRSLPPIC+IPD-OH (peptide)
peptide: GICSRSLPPICIPD-OH
modifications: disulfide 3-11; N-terminus assumed
SMILES: CC[C@H](C)[C@H](NC(=O)CN)C(=O)N[C@H]1CSSC[C@@H](C(=O)N[C@H](C(=O)N2CCC[C@H]2C(=O)N[C@@H](CC(=O)O)C(=O)O)[C@@H](C)CC)NC(=O)[C@H]([C@@H](C)CC)NC(=O)[C@@H]2CCCN2C(=O)[C@@H]2CCCN2C(=O)[C@H](CC(C)C)NC(=O)[C@H](CO)NC(=O)[C@H](CCCNC(=N)N)NC(=O)[C@H](CO)NC1=O
B8: AIC+SRSLPPIC+IPD-OH (peptide)
peptide: AICSRSLPPICIPD-OH
modifications: disulfide 3-11; N-terminus assumed
SMILES: CC[C@H](C)[C@H](NC(=O)[C@H](C)N)C(=O)N[C@H]1CSSC[C@@H](C(=O)N[C@H](C(=O)N2CCC[C@H]2C(=O)N[C@@H](CC(=O)O)C(=O)O)[C@@H](C)CC)NC(=O)[C@H]([C@@H](C)CC)NC(=O)[C@@H]2CCCN2C(=O)[C@@H]2CCCN2C(=O)[C@H](CC(C)C)NC(=O)[C@H](CO)NC(=O)[C@H](CCCNC(=N)N)NC(=O)[C@H](CO)NC1=O
B9: AIC+SRSLPPIC+IPD-NH2 (peptide)
peptide: AICSRSLPPICIPD-NH2
modifications: disulfide 3-11; N-terminus assumed
SMILES: CC[C@H](C)[C@H](NC(=O)[C@H](C)N)C(=O)N[C@H]1CSSC[C@@H](C(=O)N[C@H](C(=O)N2CCC[C@H]2C(=O)N[C@@H](CC(=O)O)C(N)=O)[C@@H](C)CC)NC(=O)[C@H]([C@@H](C)CC)NC(=O)[C@@H]2CCCN2C(=O)[C@@H]2CCCN2C(=O)[C@H](CC(C)C)NC(=O)[C@H](CO)NC(=O)[C@H](CCCNC(=N)N)NC(=O)[C@H](CO)NC1=O

Target: T1, Recombinant human MASP1 active protease (amino acids 297-699, C-terminal His Tag) (human, UniProt P48740 297-699)
T1 sequence: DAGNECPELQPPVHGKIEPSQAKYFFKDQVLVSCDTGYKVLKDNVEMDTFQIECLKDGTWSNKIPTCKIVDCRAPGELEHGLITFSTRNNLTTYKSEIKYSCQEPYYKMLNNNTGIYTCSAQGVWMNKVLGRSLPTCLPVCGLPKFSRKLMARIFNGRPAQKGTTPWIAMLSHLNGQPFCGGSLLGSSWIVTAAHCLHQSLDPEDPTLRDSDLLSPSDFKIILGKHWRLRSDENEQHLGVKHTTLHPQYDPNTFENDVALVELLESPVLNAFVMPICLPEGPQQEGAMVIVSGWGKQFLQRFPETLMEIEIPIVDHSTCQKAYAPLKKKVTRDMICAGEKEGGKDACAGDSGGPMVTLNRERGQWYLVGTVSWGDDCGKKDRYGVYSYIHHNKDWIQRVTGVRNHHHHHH
Assay: cell-based or functional assay

Binder | human MASP1 IC50 (FRET substrate cleavage, enzyme activity)
GICSRSLPPICIPD-OH (disulfide 3-11; also: TFA salt) [SFMI-1, GIC+SRSLPPIC+IPD-OH (Reference No 1)] | 15.6 nM
AICSRSLPPICIPD-NH2 (disulfide 3-11; also: TFA salt) [Ala-1 SFMI-1 amide, AIC+SRSLPPIC+IPD-NH2 (Reference No B)] | 8 nM
AICSRSLPPICIPD-NH2 (disulfide 3-11; also: HCl salt) [Ala-1 SFMI-1 HCl amide, AIC+SRSLPPIC+IPD-NH2 (HCl Salt) (Reference No C)] | 3.6 nM
GICSRSLPPICIPD-OH (disulfide 3-11; also: HCl salt) [SFMI-1 HCl, GIC+SRSLPPIC+IPD-OH (HCl Salt) (Reference No 2)] | 18 nM
GICSRSLPPICIPD-NH2 (disulfide 3-11; also: TFA salt) [SFMI-1 amide, GIC+SRSLPPIC+IPD-NH2 (Reference No 3)] | 18 nM
AICSRSLPPICIPD-OH (disulfide 3-11; also: TFA salt) [Ala-1 SFMI-1, AIC+SRSLPPIC+IPD-OH (Reference No A)] | 7.45 nM

Target: Recombinant human MASP2 active protease (amino acids 297-686, C-terminal His Tag) (human, UniProt O00187 297-686)
Sequence (O00187 other isoform, or with tags, fused parts or gaps limits assumed): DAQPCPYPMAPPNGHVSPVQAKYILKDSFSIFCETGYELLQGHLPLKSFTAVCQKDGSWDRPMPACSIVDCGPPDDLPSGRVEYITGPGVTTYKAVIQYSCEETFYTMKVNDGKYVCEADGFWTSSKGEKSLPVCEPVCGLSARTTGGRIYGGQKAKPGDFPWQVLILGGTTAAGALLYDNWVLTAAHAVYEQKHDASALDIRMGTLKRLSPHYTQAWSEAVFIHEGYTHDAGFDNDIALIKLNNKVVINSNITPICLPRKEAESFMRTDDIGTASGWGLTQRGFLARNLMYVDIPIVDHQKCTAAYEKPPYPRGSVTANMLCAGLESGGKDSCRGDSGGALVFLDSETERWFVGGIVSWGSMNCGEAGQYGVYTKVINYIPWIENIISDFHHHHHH
Assay: cell-based or functional assay

Binder | human MASP2 IC50 (FRET substrate cleavage, enzyme activity)
GICSRSLPPICIPD-OH (disulfide 3-11; also: TFA salt) [SFMI-1, GIC+SRSLPPIC+IPD-OH (Reference No 1)] | 1090 nM
AICSRSLPPICIPD-NH2 (disulfide 3-11; also: TFA salt) [Ala-1 SFMI-1 amide, AIC+SRSLPPIC+IPD-NH2 (Reference No B)] | 390 nM
AICSRSLPPICIPD-NH2 (disulfide 3-11; also: HCl salt) [Ala-1 SFMI-1 HCl amide, AIC+SRSLPPIC+IPD-NH2 (HCl Salt) (Reference No C)] | 3000 nM
GICSRSLPPICIPD-OH (disulfide 3-11; also: HCl salt) [SFMI-1 HCl, GIC+SRSLPPIC+IPD-OH (HCl Salt) (Reference No 2)] | 610 nM
GICSRSLPPICIPD-NH2 (disulfide 3-11; also: TFA salt) [SFMI-1 amide, GIC+SRSLPPIC+IPD-NH2 (Reference No 3)] | 610 nM
AICSRSLPPICIPD-OH (disulfide 3-11; also: TFA salt) [Ala-1 SFMI-1, AIC+SRSLPPIC+IPD-OH (Reference No A)] | 914 nM

Target: Recombinant human MASP2 enzyme (fragment corresponding to amino acids 297-686, C-terminal His Tag) (human, UniProt O00187 297-686)
Sequence (O00187 other isoform, or with tags, fused parts or gaps limits assumed): as above
Assay: cell-based or functional assay

Binder | human MASP2 IC50
B1 | 120 nM
B2 | 84 nM
B3 | 37 nM
B4 | 31 nM
B5 | 47 nM
B6 | 39 nM
[Sar]ICSRS[tBuAla]PPI[Pen]IP-{PEG9-OH} (disulfide 3-11) [((N-Me)G)-IC+SRS-((tBu)A)-PPI-(Pen)+IP-(PEG9(31 atoms))-OH] | 62 nM
[Sar]ICSRS[tBuAla]PPI[Pen]IP-{PEG8-OH} (disulfide 3-11) [((N-Me)G)-IC+SRS-((tBu)A)-PPI-(Pen)+IP-(PEG8(28 atoms))-OH] | 76 nM

Target: T2, Recombinant human MASP1 enzyme (fragment corresponding to amino acids 297-699, C-terminal His Tag) (human, UniProt P48740 297-699)
T2 sequence: T1 sequence
Assay: cell-based or functional assay

Binder | human MASP1 IC50
B1 | 3.2 nM
B2 | 2.6 nM
B3 | 3.4 nM
B4 | 2 nM
B5 | 2.3 nM
B6 | 2.3 nM
[Sar]ICSRS[tBuAla]PPI[Pen]IP-{PEG9-OH} (disulfide 3-11) [((N-Me)G)-IC+SRS-((tBu)A)-PPI-(Pen)+IP-(PEG9(31 atoms))-OH] | 6.3 nM
[Sar]ICSRS[tBuAla]PPI[Pen]IP-{PEG8-OH} (disulfide 3-11) [((N-Me)G)-IC+SRS-((tBu)A)-PPI-(Pen)+IP-(PEG8(28 atoms))-OH] | 7.9 nM

Target: Recombinant rat MASP2 enzyme (fragment corresponding to amino acids 296-685, C-terminal His Tag) (rat, UniProt Q9JJS8 296-685)
Sequence (Q9JJS8 other isoform, or with tags, fused parts or gaps limits assumed): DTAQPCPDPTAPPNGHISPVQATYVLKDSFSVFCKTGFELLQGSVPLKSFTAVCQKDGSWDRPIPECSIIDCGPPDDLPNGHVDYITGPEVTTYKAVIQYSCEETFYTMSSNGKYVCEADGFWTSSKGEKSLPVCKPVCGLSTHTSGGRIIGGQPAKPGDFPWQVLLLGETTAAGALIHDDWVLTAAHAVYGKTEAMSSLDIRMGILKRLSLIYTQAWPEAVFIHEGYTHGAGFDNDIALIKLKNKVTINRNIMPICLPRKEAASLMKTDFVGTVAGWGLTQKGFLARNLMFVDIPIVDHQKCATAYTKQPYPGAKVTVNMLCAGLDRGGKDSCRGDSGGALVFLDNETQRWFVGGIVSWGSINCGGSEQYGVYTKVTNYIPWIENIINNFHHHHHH
Assay: cell-based or functional assay

Binder | rat MASP2 IC50
B7 | 68 nM
B8 | 68.4 nM
B9 | 54.2 nM

Target: T3, Recombinant rat MASP1 enzyme (fragment corresponding to amino acids 302-704, C-terminal His Tag) (rat, UniProt Q8CHN8 302-704)
T3 sequence: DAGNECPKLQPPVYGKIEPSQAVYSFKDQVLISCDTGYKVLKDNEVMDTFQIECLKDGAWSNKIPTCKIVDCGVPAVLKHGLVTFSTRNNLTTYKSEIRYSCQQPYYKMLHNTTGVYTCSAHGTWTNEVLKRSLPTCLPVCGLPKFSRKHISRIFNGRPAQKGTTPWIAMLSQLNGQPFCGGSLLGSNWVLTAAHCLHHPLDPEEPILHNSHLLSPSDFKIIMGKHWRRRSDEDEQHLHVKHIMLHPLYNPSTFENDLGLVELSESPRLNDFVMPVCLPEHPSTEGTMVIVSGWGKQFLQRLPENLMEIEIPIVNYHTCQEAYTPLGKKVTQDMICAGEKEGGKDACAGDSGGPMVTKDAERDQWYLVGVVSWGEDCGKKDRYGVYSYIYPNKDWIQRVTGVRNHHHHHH
Assay: cell-based or functional assay

Binder | rat MASP1 IC50
B7 | 68.6 nM
B8 | 50.2 nM
B9 | 83.4 nM
AICSRSLPPICIPD-NH2 (disulfide 3-11; also: HCl salt) [AIC+SRSLPPIC+IPD-NH2 (HCl Salt)] | 210 nM
